Measured values reported in article PMC10444775 (Scientific Reports, 2023).

Key:
Details in all cases: both partners purified
[1] = biological target: CoV-2-S-RBD-SD1 spike construct (SARS-CoV-2, UniProt P0DTC2); experiment: ELISA
[2] = biological target: SARS-CoV-2 RBD domain (used for HDX-MS of 7A9) (SARS-CoV-2, reference strain …); experiment: HDX-MS
[3] = biological target: CoV-2-S-RBD construct used for x-ray crystallography (SARS-CoV-2, UniProt P0DTC2); experiment: crystal structure

Measured: binding result

B1: 7A9 VHH (VHH)
VHH: QVQLVESGGGLVQAGGSLRLSCSASGGTASRSAMGWFRQAPGKEREFVAGISRRNSGSTYVADSYEDSVKGRFTISRDNAKNTIYLQMNSLKPEDTAVYYCAAEPTLGWYVPRRSVEYEYWGQGTQVTVSS
binds: [1] | [2] | [3]
